Results on 9 molecules are retold here after US20130157953A1, “TREATMENT OF CARDIAC CONDITIONS” (Zealand Pharma A/S, priority 2010, published 2013).

Numbered stars: 1 amine (or outer) side, 2 acyl side, 3 side chain; on linkers, the order of the positions; unused ones are H or OH. Bridge positions count the residues as written; N and C are the ends. Square brackets hold non-standard residues; d marks the D form. Side chains are listed from the residue outwards. * marks the point of attachment. γGlu = O=C(O)[C@H](CCC(=O)[*:2])N[*:1]; Palmitoyl = CCCCCCCCCCCCCCCC(=O)*; Aib = CC(C)(N)C(=O)O

Assay [1] addresses human glucagon receptor (Glucagon-R) (human, UniProt P47871 26-477). Briefly: cell-based or functional assay.
In assay [2] the target is human glucagon-like peptide 1 receptor (GLP-1R) (human, UniProt P43220 24-463). The assay can be described thus: cell-based or functional assay.

Chain of human glucagon receptor (Glucagon-R) (P47871 26-477): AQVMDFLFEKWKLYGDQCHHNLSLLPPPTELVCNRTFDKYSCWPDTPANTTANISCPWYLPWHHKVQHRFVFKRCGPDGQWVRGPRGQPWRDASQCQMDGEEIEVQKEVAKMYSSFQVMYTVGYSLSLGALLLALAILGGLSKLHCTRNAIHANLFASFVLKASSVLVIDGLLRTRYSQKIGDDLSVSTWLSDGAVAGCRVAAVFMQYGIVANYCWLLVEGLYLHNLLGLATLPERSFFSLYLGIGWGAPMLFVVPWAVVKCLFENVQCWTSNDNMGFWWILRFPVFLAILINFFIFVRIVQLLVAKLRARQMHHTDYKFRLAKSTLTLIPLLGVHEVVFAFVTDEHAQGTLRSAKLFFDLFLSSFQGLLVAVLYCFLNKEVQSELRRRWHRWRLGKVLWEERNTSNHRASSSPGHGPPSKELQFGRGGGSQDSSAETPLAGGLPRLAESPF

B1: Compound 44 (peptide)
peptide: H-H[dS]QGTFTSDYSKYLDSKAAHDFVEWLLRA-NH2
SMILES: CC(C)C[C@H](NC(=O)[C@H](CC(C)C)NC(=O)[C@H](Cc1c[nH]c2ccccc12)NC(=O)[C@H](CCC(=O)O)NC(=O)[C@@H](NC(=O)[C@H](Cc1ccccc1)NC(=O)[C@H](CC(=O)O)NC(=O)[C@H](Cc1c[nH]cn1)NC(=O)[C@H](C)NC(=O)[C@H](C)NC(=O)[C@H](CCCCN)NC(=O)[C@H](CO)NC(=O)[C@H](CC(=O)O)NC(=O)[C@H](CC(C)C)NC(=O)[C@H](Cc1ccc(O)cc1)NC(=O)[C@H](CCCCN)NC(=O)[C@H](CO)NC(=O)[C@H](Cc1ccc(O)cc1)NC(=O)[C@H](CC(=O)O)NC(=O)[C@H](CO)NC(=O)[C@@H](NC(=O)[C@H](Cc1ccccc1)NC(=O)[C@@H](NC(=O)CNC(=O)[C@H](CCC(N)=O)NC(=O)[C@@H](CO)NC(=O)[C@@H](N)Cc1c[nH]cn1)[C@@H](C)O)[C@@H](C)O)C(C)C)C(=O)N[C@@H](CCCNC(=N)N)C(=O)N[C@@H](C)C(N)=O
As for B1, in assay [1], the “EC50 (nM) GuR; cAMP content, HEK293 cells expressing the human glucagon receptor” value (“EC50 (nM) GuR; cAMP content” below) was 0.11 nM. For the same molecule, the “EC50 (nM) GLP-1R; cAMP content, HEK293 cells expressing human GLP-1R” value (“EC50 (nM) GLP-1R; cAMP content” for short) in assay [2] stood at 0.09 nM.

B2: Compound 203 (peptide)
peptide: H-HSQGTFTSDYSKYLDSKAAHDFVEWLK([γGlu-Palmitoyl])RA-NH2
SMILES: CCCCCCCCCCCCCCCC(=O)N[C@@H](CCC(=O)NCCCC[C@H](NC(=O)[C@H](CC(C)C)NC(=O)[C@H](Cc1c[nH]c2ccccc12)NC(=O)[C@H](CCC(=O)O)NC(=O)[C@@H](NC(=O)[C@H](Cc1ccccc1)NC(=O)[C@H](CC(=O)O)NC(=O)[C@H](Cc1c[nH]cn1)NC(=O)[C@H](C)NC(=O)[C@H](C)NC(=O)[C@H](CCCCN)NC(=O)[C@H](CO)NC(=O)[C@H](CC(=O)O)NC(=O)[C@H](CC(C)C)NC(=O)[C@H](Cc1ccc(O)cc1)NC(=O)[C@H](CCCCN)NC(=O)[C@H](CO)NC(=O)[C@H](Cc1ccc(O)cc1)NC(=O)[C@H](CC(=O)O)NC(=O)[C@H](CO)NC(=O)[C@@H](NC(=O)[C@H](Cc1ccccc1)NC(=O)[C@@H](NC(=O)CNC(=O)[C@H](CCC(N)=O)NC(=O)[C@H](CO)NC(=O)[C@@H](N)Cc1c[nH]cn1)[C@@H](C)O)[C@@H](C)O)C(C)C)C(=O)N[C@@H](CCCNC(=N)N)C(=O)N[C@@H](C)C(N)=O)C(=O)O
For the molecule B2, the “EC50 (nM) GuR; cAMP content” value in assay [1] came out at 0.22 nM. In addition, the “EC50 (nM) GLP-1R; cAMP content” value in assay [2] amounted to 0.57 nM.

B3: Compound 208 (peptide)
peptide: H-H[Aib]QGTFTSDYSKYLDSK([γGlu-Palmitoyl])AAHDFVEWLLSA-NH2
SMILES: CCCCCCCCCCCCCCCC(=O)N[C@@H](CCC(=O)NCCCC[C@H](NC(=O)[C@H](CO)NC(=O)[C@H](CC(=O)O)NC(=O)[C@H](CC(C)C)NC(=O)[C@H](Cc1ccc(O)cc1)NC(=O)[C@H](CCCCN)NC(=O)[C@H](CO)NC(=O)[C@H](Cc1ccc(O)cc1)NC(=O)[C@H](CC(=O)O)NC(=O)[C@H](CO)NC(=O)[C@@H](NC(=O)[C@H](Cc1ccccc1)NC(=O)[C@@H](NC(=O)CNC(=O)[C@H](CCC(N)=O)NC(=O)C(C)(C)NC(=O)[C@@H](N)Cc1c[nH]cn1)[C@@H](C)O)[C@@H](C)O)C(=O)N[C@@H](C)C(=O)N[C@@H](C)C(=O)N[C@@H](Cc1c[nH]cn1)C(=O)N[C@@H](CC(=O)O)C(=O)N[C@@H](Cc1ccccc1)C(=O)N[C@H](C(=O)N[C@@H](CCC(=O)O)C(=O)N[C@@H](Cc1c[nH]c2ccccc12)C(=O)N[C@@H](CC(C)C)C(=O)N[C@@H](CC(C)C)C(=O)N[C@@H](CO)C(=O)N[C@@H](C)C(N)=O)C(C)C)C(=O)O
On to B3, for which the “EC50 (nM) GuR; cAMP content” value in assay [1] was found to be 0.16 nM. In assay [2], the “EC50 (nM) GLP-1R; cAMP content” value is 0.11 nM.

B4: Compound 202 (peptide)
peptide: H-HSQGTFTSDYSKYLDK([γGlu-Palmitoyl])KAAHDFVEWLLRA-NH2
SMILES: CCCCCCCCCCCCCCCC(=O)N[C@@H](CCC(=O)NCCCC[C@H](NC(=O)[C@H](CC(=O)O)NC(=O)[C@H](CC(C)C)NC(=O)[C@H](Cc1ccc(O)cc1)NC(=O)[C@H](CCCCN)NC(=O)[C@H](CO)NC(=O)[C@H](Cc1ccc(O)cc1)NC(=O)[C@H](CC(=O)O)NC(=O)[C@H](CO)NC(=O)[C@@H](NC(=O)[C@H](Cc1ccccc1)NC(=O)[C@@H](NC(=O)CNC(=O)[C@H](CCC(N)=O)NC(=O)[C@H](CO)NC(=O)[C@@H](N)Cc1c[nH]cn1)[C@@H](C)O)[C@@H](C)O)C(=O)N[C@@H](CCCCN)C(=O)N[C@@H](C)C(=O)N[C@@H](C)C(=O)N[C@@H](Cc1c[nH]cn1)C(=O)N[C@@H](CC(=O)O)C(=O)N[C@@H](Cc1ccccc1)C(=O)N[C@H](C(=O)N[C@@H](CCC(=O)O)C(=O)N[C@@H](Cc1c[nH]c2ccccc12)C(=O)N[C@@H](CC(C)C)C(=O)N[C@@H](CC(C)C)C(=O)N[C@@H](CCCNC(=N)N)C(=O)N[C@@H](C)C(N)=O)C(C)C)C(=O)O
In the case of B4, the “EC50 (nM) GuR; cAMP content” value in assay [1] came to 0.13 nM. Further, the “EC50 (nM) GLP-1R; cAMP content” value in assay [2] was 0.2 nM.

B5: Compound 45 (peptide)
peptide: H-H[Aib]QGTFTSDYSKYLDSKAAHDFVEWLLRA-NH2
SMILES: CC(C)C[C@H](NC(=O)[C@H](CC(C)C)NC(=O)[C@H](Cc1c[nH]c2ccccc12)NC(=O)[C@H](CCC(=O)O)NC(=O)[C@@H](NC(=O)[C@H](Cc1ccccc1)NC(=O)[C@H](CC(=O)O)NC(=O)[C@H](Cc1c[nH]cn1)NC(=O)[C@H](C)NC(=O)[C@H](C)NC(=O)[C@H](CCCCN)NC(=O)[C@H](CO)NC(=O)[C@H](CC(=O)O)NC(=O)[C@H](CC(C)C)NC(=O)[C@H](Cc1ccc(O)cc1)NC(=O)[C@H](CCCCN)NC(=O)[C@H](CO)NC(=O)[C@H](Cc1ccc(O)cc1)NC(=O)[C@H](CC(=O)O)NC(=O)[C@H](CO)NC(=O)[C@@H](NC(=O)[C@H](Cc1ccccc1)NC(=O)[C@@H](NC(=O)CNC(=O)[C@H](CCC(N)=O)NC(=O)C(C)(C)NC(=O)[C@@H](N)Cc1c[nH]cn1)[C@@H](C)O)[C@@H](C)O)C(C)C)C(=O)N[C@@H](CCCNC(=N)N)C(=O)N[C@@H](C)C(N)=O
B5: in assay [1], the “EC50 (nM) GuR; cAMP content” value amounted to 0.06 nM. For the same molecule, the “EC50 (nM) GLP-1R; cAMP content” value in assay [2] was determined as 0.08 nM.
Turning to H-HSQGTFTSDYSAYLDSRRAQDFVWLMNT-NH2 [Compound 242], the “EC50 (nM) GuR; cAMP content” value in assay [1] was 0.4 nM. Further, the “EC50 (nM) GLP-1R; cAMP content” value in assay [2] is 1.4 nM.

B6: Compound 262 (peptide)
peptide: H-HSQGTFTSDYSKYLDSK([γGlu-Palmitoyl])AAHDFVEWLLRA-NH2
SMILES: CCCCCCCCCCCCCCCC(=O)N[C@@H](CCC(=O)NCCCC[C@H](NC(=O)[C@H](CO)NC(=O)[C@H](CC(=O)O)NC(=O)[C@H](CC(C)C)NC(=O)[C@H](Cc1ccc(O)cc1)NC(=O)[C@H](CCCCN)NC(=O)[C@H](CO)NC(=O)[C@H](Cc1ccc(O)cc1)NC(=O)[C@H](CC(=O)O)NC(=O)[C@H](CO)NC(=O)[C@@H](NC(=O)[C@H](Cc1ccccc1)NC(=O)[C@@H](NC(=O)CNC(=O)[C@H](CCC(N)=O)NC(=O)[C@H](CO)NC(=O)[C@@H](N)Cc1c[nH]cn1)[C@@H](C)O)[C@@H](C)O)C(=O)N[C@@H](C)C(=O)N[C@@H](C)C(=O)N[C@@H](Cc1c[nH]cn1)C(=O)N[C@@H](CC(=O)O)C(=O)N[C@@H](Cc1ccccc1)C(=O)N[C@H](C(=O)N[C@@H](CCC(=O)O)C(=O)N[C@@H](Cc1c[nH]c2ccccc12)C(=O)N[C@@H](CC(C)C)C(=O)N[C@@H](CC(C)C)C(=O)N[C@@H](CCCNC(=N)N)C(=O)N[C@@H](C)C(N)=O)C(C)C)C(=O)O
For B6, the “EC50 (nM) GuR; cAMP content” value in assay [1] is 0.12 nM. Moreover, the “EC50 (nM) GLP-1R; cAMP content” value in assay [2] came out at 0.11 nM.

B7: Compound 207 (peptide)
peptide: H-H[Aib]QGTFTSDYSKYLDSK([γGlu-Palmitoyl])AARDFVAWLLRA-NH2
SMILES: CCCCCCCCCCCCCCCC(=O)N[C@@H](CCC(=O)NCCCC[C@H](NC(=O)[C@H](CO)NC(=O)[C@H](CC(=O)O)NC(=O)[C@H](CC(C)C)NC(=O)[C@H](Cc1ccc(O)cc1)NC(=O)[C@H](CCCCN)NC(=O)[C@H](CO)NC(=O)[C@H](Cc1ccc(O)cc1)NC(=O)[C@H](CC(=O)O)NC(=O)[C@H](CO)NC(=O)[C@@H](NC(=O)[C@H](Cc1ccccc1)NC(=O)[C@@H](NC(=O)CNC(=O)[C@H](CCC(N)=O)NC(=O)C(C)(C)NC(=O)[C@@H](N)Cc1c[nH]cn1)[C@@H](C)O)[C@@H](C)O)C(=O)N[C@@H](C)C(=O)N[C@@H](C)C(=O)N[C@@H](CCCNC(=N)N)C(=O)N[C@@H](CC(=O)O)C(=O)N[C@@H](Cc1ccccc1)C(=O)N[C@H](C(=O)N[C@@H](C)C(=O)N[C@@H](Cc1c[nH]c2ccccc12)C(=O)N[C@@H](CC(C)C)C(=O)N[C@@H](CC(C)C)C(=O)N[C@@H](CCCNC(=N)N)C(=O)N[C@@H](C)C(N)=O)C(C)C)C(=O)O
Regarding B7, in assay [1], the “EC50 (nM) GuR; cAMP content” value stood at 0.17 nM. Further, the “EC50 (nM) GLP-1R; cAMP content” value in assay [2] amounted to 0.12 nM.

B8: Compound 261 (peptide)
peptide: H-HSQGTFTSDYSKYLDSKAAHDFVEWLLKA-NH2
modifications: lactam 24-28
SMILES: CC(C)C[C@@H]1NC(=O)[C@H](CC(C)C)NC(=O)[C@H](Cc2c[nH]c3ccccc23)NC(=O)[C@@H](NC(=O)[C@@H](NC(=O)[C@H](Cc2ccccc2)NC(=O)[C@H](CC(=O)O)NC(=O)[C@H](Cc2c[nH]cn2)NC(=O)[C@H](C)NC(=O)[C@H](C)NC(=O)[C@H](CCCCN)NC(=O)[C@H](CO)NC(=O)[C@H](CC(=O)O)NC(=O)[C@H](CC(C)C)NC(=O)[C@H](Cc2ccc(O)cc2)NC(=O)[C@H](CCCCN)NC(=O)[C@H](CO)NC(=O)[C@H](Cc2ccc(O)cc2)NC(=O)[C@H](CC(=O)O)NC(=O)[C@H](CO)NC(=O)[C@@H](NC(=O)[C@H](Cc2ccccc2)NC(=O)[C@@H](NC(=O)CNC(=O)[C@H](CCC(N)=O)NC(=O)[C@H](CO)NC(=O)[C@@H](N)Cc2c[nH]cn2)[C@@H](C)O)[C@@H](C)O)C(C)C)CCC(=O)NCCCC[C@@H](C(=O)N[C@@H](C)C(N)=O)NC1=O
On to B8, for which the “EC50 (nM) GuR; cAMP content” value in assay [1] worked out at 0.07 nM. In assay [2], the “EC50 (nM) GLP-1R; cAMP content” value amounted to 0.03 nM.
